# From publication PMC10711656, “RZZ‐Spindly and CENP‐E form an integrated platform to recruit dynein to the kinetochore corona” (The EMBO Journal, 2023)
# B1: EGFP‐CENP‐E^2070C (domain or fragment, human, UniProt Q02224 2070-2701, looked up)
# chain: RQNHQVKPEKRLLSDGQQHLTESLREKCSRIKELLKRYSEMDDHYECLNRLSLDLEKEIEFQKELSMRVKANLSLPYLQTKHIEKLFTANQRCSMEFHRIMKKLKYVLSYVTKIKEEQHESINKFEMDFIDEVEKQKELLIKIQHLQQDCDVPSRELRDLKLNQNMDLHIEEILKDFSESEFPSIKTEFQQVLSNRKEMTQFLEEWLNTRFDIEKLKNGIQKENDRICQVNNFFNNRIIAIMNESTEFEERSATISKEWEQDLKSLKEKNEKLFKNYQTLKTSLASGAQVNPTTQDNKNPHVTSRATQLTTEKIRELENSLHEAKESAMHKESKIIKMQKELEVTNDIIAKLQAKVHESNKCLEKTKETIQVLQDKVALGAKPYKEEIEDLKMKLVKIDLEKMKNAKEFEKEISATKATVEYQKEVIRLLRENLRRSQQAQDTSVISEHTDPQPSNKPLTCGGGSGIVQNTKALILKSEHIRLEKEISKLKQQNEQLIKQKNELLSNNQHLSNEVKTWKERTLKREAHKQVTCENSPKSPKVTGTASKKKQITPSQCKERNLQDPVPKESPKSCFFDSRSKSLPSPHPVRYFDNSSLGLCPEVQNAGAESVDSQPGPWHASSGKDVPECKTQ
# notes: codon-optimised cDNA; The His6-EGFP tag is PreScission-cleavable, but no cleavage step is described; source: insect cells (biGBac; baculovirus from Sf9, expression in Tnao38), purified (HisTrap, Superdex 200); not shown: EGFP, N-terminal, kept
# B2: EGFP‐CENP‐E^2366C (domain or fragment, human, UniProt Q02224 2366-2701, looked up)
# chain: NKNPHVTSRATQLTTEKIRELENSLHEAKESAMHKESKIIKMQKELEVTNDIIAKLQAKVHESNKCLEKTKETIQVLQDKVALGAKPYKEEIEDLKMKLVKIDLEKMKNAKEFEKEISATKATVEYQKEVIRLLRENLRRSQQAQDTSVISEHTDPQPSNKPLTCGGGSGIVQNTKALILKSEHIRLEKEISKLKQQNEQLIKQKNELLSNNQHLSNEVKTWKERTLKREAHKQVTCENSPKSPKVTGTASKKKQITPSQCKERNLQDPVPKESPKSCFFDSRSKSLPSPHPVRYFDNSSLGLCPEVQNAGAESVDSQPGPWHASSGKDVPECKTQ
# notes: source: E. coli BL21 (DE3) RP plus, purified (HisTrap FF, Superose 6); not shown: EGFP, N-terminal, kept
# Tests used:
# [1] = molecular target: T1, ^mChRZZS filaments (mCherry-RZZ with prefarnesylated Spindly, polymerised with GST-MPS1) (UniProt P50748 1-2209; Q9H900 1-591; O43264 1-779; Q96EA4 1-605, incubated with GST-MPS1 (the paper says that MPS1 phosphorylates ROD on Thr13 and Ser15) | farnesylated (prefarnesylated)); assay: filament-binding assay (fluorescence microscopy); mCherry-RZZS filaments diluted 1:8, EGFP-CENP-E constructs added to 1 μM, flowed into a flow chamber and imaged; M-buffer (50 mM HEPES pH 7.5, 100 mM NaCl, 1 mM MgCl2, 1 mM TCEP); details: both partners purified
# T1 construct: ROD subunit of the ROD-Zwilch-ZW10 (RZZ) complex; Zwilch subunit of the RZZ complex; ZW10 subunit of the RZZ complex; Spindly, dynein-dynactin adaptor; no mCherry is named on the Spindly of the filaments; Filaments formed essentially as described by d'Amico et al (2022); source: mCherry-RZZ: biGBac system, purified as previously described; 4 μM mCherry-RZZ and 8 μM prefarnesylated Spindly …
# [2] = molecular target: T2, ^mCHRZZ^mChS rings (mCherry-RZZ with prefarnesylated mCherry-Spindly, polymerised with GST-MPS1) (UniProt P50748 1-2209; Q9H900 1-591; O43264 1-779; Q96EA4 1-605, incubated with GST-MPS1 (the paper says that MPS1 phosphorylates ROD on Thr13 and Ser15) | farnesylated (prefarnesylated)); assay: TIRF microscopy ring-binding assay; mCherry-RZZ/mCherry-Spindly rings (approximately 40 nM) held on the coverslip by anti-mCherry GST-tagged nanobody; EGFP-CENP-E constructs (10 nM) flowed in; A-buffer (50 mM HEPES pH 8, 200 mM NaCl, 2 mM TCEP, 0.1 mg/ml BSA); room temperature; details: both partners purified
# T2 construct: ROD subunit of the ROD-Zwilch-ZW10 (RZZ) complex; Zwilch subunit of the RZZ complex; ZW10 subunit of the RZZ complex; Spindly, dynein-dynactin adaptor; Constructs as in Sacristan et al, 2018, Raisch et al, 2022 and d'Amico et al, 2022; also called RZZS minicircles; RZZS rings; source: mCherry-RZZ: biGBac system, purified as previously described; mCherry-Spindly: Tnao38 insect cells, purified; 4 …
# T2 sequence (P50748 whole entry, chain 1 of 4): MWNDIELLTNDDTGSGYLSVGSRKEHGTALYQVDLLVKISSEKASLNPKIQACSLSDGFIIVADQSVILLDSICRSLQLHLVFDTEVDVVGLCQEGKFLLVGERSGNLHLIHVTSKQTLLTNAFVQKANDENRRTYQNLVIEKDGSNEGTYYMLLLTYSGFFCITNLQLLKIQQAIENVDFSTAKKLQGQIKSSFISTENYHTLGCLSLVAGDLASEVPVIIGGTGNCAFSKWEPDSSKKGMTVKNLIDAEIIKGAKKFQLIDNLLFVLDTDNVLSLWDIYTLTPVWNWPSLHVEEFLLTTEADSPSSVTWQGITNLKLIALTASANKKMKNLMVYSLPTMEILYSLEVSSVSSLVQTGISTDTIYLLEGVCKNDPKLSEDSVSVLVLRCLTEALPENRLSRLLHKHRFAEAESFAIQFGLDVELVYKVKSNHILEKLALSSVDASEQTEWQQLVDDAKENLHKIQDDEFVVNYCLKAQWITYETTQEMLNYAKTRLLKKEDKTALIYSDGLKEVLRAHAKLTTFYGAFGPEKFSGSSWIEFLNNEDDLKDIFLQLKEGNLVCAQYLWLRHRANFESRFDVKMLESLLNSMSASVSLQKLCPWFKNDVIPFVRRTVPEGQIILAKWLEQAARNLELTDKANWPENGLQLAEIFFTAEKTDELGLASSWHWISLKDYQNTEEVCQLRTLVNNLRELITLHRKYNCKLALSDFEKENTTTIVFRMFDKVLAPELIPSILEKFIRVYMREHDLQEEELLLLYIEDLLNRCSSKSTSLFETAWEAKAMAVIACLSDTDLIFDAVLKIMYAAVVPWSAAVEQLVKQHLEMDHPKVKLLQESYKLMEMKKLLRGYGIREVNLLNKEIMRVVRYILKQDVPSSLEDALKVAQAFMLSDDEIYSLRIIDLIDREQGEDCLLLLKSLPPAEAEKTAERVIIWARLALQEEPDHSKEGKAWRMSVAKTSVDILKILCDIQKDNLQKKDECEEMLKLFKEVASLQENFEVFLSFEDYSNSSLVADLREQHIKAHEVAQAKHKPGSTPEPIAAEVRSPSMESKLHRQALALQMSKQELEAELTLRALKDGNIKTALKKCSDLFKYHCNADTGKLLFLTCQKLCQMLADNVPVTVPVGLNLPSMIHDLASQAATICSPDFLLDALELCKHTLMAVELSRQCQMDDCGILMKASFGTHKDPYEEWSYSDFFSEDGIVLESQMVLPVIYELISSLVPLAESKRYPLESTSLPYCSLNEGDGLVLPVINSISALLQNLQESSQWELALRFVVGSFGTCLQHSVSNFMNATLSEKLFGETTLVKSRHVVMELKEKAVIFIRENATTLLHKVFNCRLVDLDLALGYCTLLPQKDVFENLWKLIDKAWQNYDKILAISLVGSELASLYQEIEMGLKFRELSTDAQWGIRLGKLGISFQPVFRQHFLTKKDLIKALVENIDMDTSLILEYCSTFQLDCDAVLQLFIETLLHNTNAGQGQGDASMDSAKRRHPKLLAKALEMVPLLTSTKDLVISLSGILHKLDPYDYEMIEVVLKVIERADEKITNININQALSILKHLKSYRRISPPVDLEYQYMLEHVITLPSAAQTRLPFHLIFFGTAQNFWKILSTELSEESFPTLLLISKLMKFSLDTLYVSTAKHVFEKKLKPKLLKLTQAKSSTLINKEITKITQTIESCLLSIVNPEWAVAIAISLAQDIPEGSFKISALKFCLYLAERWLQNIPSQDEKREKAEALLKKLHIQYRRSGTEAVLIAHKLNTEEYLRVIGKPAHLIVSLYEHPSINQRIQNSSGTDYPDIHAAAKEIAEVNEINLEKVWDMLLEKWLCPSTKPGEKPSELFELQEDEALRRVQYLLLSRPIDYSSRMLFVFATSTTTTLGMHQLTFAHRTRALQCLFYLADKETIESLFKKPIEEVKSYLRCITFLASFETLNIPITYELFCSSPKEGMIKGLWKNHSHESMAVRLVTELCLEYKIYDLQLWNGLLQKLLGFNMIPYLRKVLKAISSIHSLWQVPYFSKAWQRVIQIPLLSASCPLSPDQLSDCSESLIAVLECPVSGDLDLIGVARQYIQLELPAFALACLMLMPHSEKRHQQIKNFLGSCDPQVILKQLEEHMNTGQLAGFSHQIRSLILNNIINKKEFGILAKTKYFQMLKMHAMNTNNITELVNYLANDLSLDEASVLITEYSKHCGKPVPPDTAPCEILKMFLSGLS
# T2 sequence (Q9H900 whole entry, chain 2 of 4): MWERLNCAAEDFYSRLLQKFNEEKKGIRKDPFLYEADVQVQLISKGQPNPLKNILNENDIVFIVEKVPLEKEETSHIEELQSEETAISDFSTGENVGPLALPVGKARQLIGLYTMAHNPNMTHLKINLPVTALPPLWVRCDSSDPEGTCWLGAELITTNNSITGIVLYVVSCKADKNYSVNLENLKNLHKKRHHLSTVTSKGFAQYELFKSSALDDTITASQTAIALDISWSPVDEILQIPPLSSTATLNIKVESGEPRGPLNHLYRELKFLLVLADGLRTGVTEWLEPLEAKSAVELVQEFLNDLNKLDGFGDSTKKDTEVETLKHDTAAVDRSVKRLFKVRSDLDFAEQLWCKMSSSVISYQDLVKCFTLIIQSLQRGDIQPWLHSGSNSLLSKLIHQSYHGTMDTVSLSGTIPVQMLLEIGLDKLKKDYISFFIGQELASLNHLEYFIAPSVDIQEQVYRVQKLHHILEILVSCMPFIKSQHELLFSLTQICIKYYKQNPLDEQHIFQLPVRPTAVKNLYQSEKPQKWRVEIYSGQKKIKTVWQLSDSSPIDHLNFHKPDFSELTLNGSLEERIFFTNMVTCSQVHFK
# T2 sequence (O43264 whole entry, chain 3 of 4): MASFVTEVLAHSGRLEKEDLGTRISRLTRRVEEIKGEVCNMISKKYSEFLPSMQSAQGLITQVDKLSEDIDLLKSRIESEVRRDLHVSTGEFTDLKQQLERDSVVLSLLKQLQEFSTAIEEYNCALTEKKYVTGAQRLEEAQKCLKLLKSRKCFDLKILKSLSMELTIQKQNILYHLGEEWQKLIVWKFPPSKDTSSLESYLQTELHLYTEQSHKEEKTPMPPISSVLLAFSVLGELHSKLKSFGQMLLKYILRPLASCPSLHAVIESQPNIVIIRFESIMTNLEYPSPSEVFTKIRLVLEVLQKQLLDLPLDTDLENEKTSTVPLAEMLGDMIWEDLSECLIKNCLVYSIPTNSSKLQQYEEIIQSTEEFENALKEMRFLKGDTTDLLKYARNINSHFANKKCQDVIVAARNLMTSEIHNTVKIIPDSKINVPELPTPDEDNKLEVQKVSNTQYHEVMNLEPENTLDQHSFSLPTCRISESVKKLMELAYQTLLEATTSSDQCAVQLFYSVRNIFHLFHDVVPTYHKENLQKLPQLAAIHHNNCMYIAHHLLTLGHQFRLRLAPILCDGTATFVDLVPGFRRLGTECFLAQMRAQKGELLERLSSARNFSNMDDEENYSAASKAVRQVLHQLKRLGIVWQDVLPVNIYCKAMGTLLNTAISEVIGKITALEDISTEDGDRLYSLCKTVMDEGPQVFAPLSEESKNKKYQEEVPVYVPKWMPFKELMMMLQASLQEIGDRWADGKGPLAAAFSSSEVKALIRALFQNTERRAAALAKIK
# T2 sequence (Q96EA4 whole entry, chain 4 of 4): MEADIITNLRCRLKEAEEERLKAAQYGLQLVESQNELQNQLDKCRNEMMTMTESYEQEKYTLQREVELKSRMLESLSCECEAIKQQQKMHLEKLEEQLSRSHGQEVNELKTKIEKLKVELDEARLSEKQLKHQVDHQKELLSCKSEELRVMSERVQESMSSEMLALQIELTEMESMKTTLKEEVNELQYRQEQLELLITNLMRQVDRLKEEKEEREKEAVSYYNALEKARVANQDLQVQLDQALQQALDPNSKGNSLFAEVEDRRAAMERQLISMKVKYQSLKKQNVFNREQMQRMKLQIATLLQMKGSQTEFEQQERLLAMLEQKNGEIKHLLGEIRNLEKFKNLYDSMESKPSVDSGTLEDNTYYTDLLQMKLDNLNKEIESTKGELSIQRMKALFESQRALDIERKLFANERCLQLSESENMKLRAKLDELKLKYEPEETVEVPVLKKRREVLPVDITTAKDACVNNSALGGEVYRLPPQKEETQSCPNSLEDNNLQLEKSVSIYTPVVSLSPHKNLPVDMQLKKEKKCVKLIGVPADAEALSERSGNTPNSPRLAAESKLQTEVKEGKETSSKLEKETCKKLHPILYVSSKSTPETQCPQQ
# T1 sequence (P50748 whole entry, chain 1 of 4): as the sequence (P50748 whole entry, chain 1 of 4) above
# T1 sequence (Q9H900 whole entry, chain 2 of 4): as the sequence (Q9H900 whole entry, chain 2 of 4) above
# T1 sequence (O43264 whole entry, chain 3 of 4): as the sequence (O43264 whole entry, chain 3 of 4) above
# T1 sequence (Q96EA4 whole entry, chain 4 of 4): as the sequence (Q96EA4 whole entry, chain 4 of 4) above
Binder,binding result [1],binding result [2]
B1,binds,binds
B2,–,binds
